Experimental data as given in the supplement of paper PMC12764529.
± gives the half width of the 95% confidence interval.

What was measured:
[1] = folding stability dG unfold (combined trypsin and chymotrypsin); higher = more stable
Summary of the method: (§1)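 Digests were run with trypsin and chymotrypsin at 11 concentrations in threefold dilutions, plus a no-protease condition, on designed mini-proteins in a PA-tagged cDNA display construct. The mini-proteins were under 80 residues, had no cysteine, and were kept only when AlphaFold2 dimer inter-PAE was above 15. After sequencing, Bayesian fitting of the counts gave K50, from which unfolding free energy was derived against a sequence-predicted unfolded-state K50 and a shared folded-state K50, per protease or combined.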

[2] = folding stability dG unfold from chymotrypsin proteolysis; higher = more stable
Summary of the method: as §1

[3] = folding stability dG unfold from trypsin proteolysis; higher = more stable
Summary of the method: as §1

In the case of “SAMVLKVEEEPFPPNAKREVKEIRKDPNSDNLFKVKIELEKSPDPSVTSAKVITIPPDGSKKVEEKVLESAG [r14_10_JUSTAS]”, the “folding stability dG unfold” value [1] is reported as 0.508 ± 0.59 kcal/mol, the “folding stability dG unfold” value [2] is reported as 0.47 ± 0.19 kcal/mol and the “folding stability dG unfold” value [3] is reported as 0.514 ± 0.27 kcal/mol.
With “SAGMPPPEEVFVVKVRFDGKELTLVVRVPPGMSAEEVAKKLAEELRKKFGPDIEVEVRRVSREELLEALSAG [r5_583_TrROS_Hall]” the “folding stability dG unfold” value [1] was 3.23 ± 0.18 kcal/mol, the “folding stability dG unfold” value [2] was 2.95 ± 0.12 kcal/mol and the “folding stability dG unfold” value [3] was 3.66 ± 0.13 kcal/mol.
With “SAGGSAGGSAGKIEAFPGKNTVLLKISIPRRDPNSDSIYTLHAVIPATPEQAKKFLELGISAGGSAGGSAGG [r11_389_TrMRF]” the “folding stability dG unfold” value [1] was 0.97 ± 0.1 kcal/mol, the “folding stability dG unfold” value [2] was 0.899 ± 0.14 kcal/mol and the “folding stability dG unfold” value [3] was 0.89 ± 0.041 kcal/mol.
In the case of “SAGMVVTERTEPATGRPYTVTTEEDGSVTGSYPATGDTRSTTLNDRTTFSLPTTSPEVAAAQVEAALAASAG [r14_561_JUSTAS]”, the “folding stability dG unfold” value [1] is reported as -0.137 ± 0.072 kcal/mol, the “folding stability dG unfold” value [2] is reported as -0.313 ± 0.15 kcal/mol and the “folding stability dG unfold” value [3] is reported as -0.138 ± 0.075 kcal/mol.
In the case of “SAGGSAGGSAGKWIMFDSPEDIEEKLKENGYRIKNIEPQKMGGGPHVYVPIEIKPPPEDKSAGGSAGGSAGG [r11_141_TrROS]”, the “folding stability dG unfold” value [1] is reported as 0.155 ± 0.38 kcal/mol, the “folding stability dG unfold” value [2] is reported as 0.43 ± 0.39 kcal/mol and the “folding stability dG unfold” value [3] is reported as -0.506 ± 0.54 kcal/mol.
With “SAGGKLTITLPPGVKEVKIEVDKETNEVKVTVTVEVTDENGKKHKVTRTFTFKLEDGETVTVTVTLPSAGGS [r16_552_TrROS_Hall]” the “folding stability dG unfold” value [1] was 5.44 ± 0.28 kcal/mol, the “folding stability dG unfold” value [2] was 5.43 ± 0.13 kcal/mol and the “folding stability dG unfold” value [3] was 4.42 ± 0.27 kcal/mol.
With “SAGGSAGGSAGGMEKLSETVTETVEVTLTSGDKTYTFTVTTTTVVLPDGTVETLEVTLQPSAGGSAGGSAGG [r11_95_JUSTAS]” the “folding stability dG unfold” value [1] was 2.81 ± 0.14 kcal/mol, the “folding stability dG unfold” value [2] was 3.42 ± 0.12 kcal/mol and the “folding stability dG unfold” value [3] was 2.05 ± 0.1 kcal/mol.
For “SAGGSAGGSAGPPNVKLTFTIMIMEMKMEPPPDGNPKMEMVMVPIEIEITAPPGDEITAISAGGSAGGSAGG [r11_174_TrROS]”, the “folding stability dG unfold” value [1] was 2.93 ± 0.39 kcal/mol, the “folding stability dG unfold” value [2] was 4 ± 0.44 kcal/mol and the “folding stability dG unfold” value [3] was 2.41 ± 0.2 kcal/mol.
For “SAGGSAGGSAGGMREIAREIWEEYNNPVTIRIRNPNGKHEPFRFPDDPEDIPGWDIDDITSAGGSAGGSAGG [r7_998_TrROS]”, the “folding stability dG unfold” value [1] was 0.463 ± 0.082 kcal/mol, the “folding stability dG unfold” value [2] was 0.79 ± 0.098 kcal/mol and the “folding stability dG unfold” value [3] was -0.831 ± 0.3 kcal/mol.
In the case of “MLVVEVPAEELSPEQVRERIRAALRAAREAGIRDARIVIVVEASEEQRERLRRELRELAEEEGLEVEIVERS [r1_387_TrROS_Hall]”, the “folding stability dG unfold” value [1] is reported as 5.34 ± 0.18 kcal/mol, the “folding stability dG unfold” value [2] is reported as 5.52 ± 0.2 kcal/mol and the “folding stability dG unfold” value [3] is reported as 4.83 ± 0.17 kcal/mol.
With “EKALEAARELARKLAEELGVEVEVRVKKVSVLNENGELIAEVEVEITVRPLPPPVVEEEEVEEEEVEFEEES [r1_318_TrROS_Hall]” the “folding stability dG unfold” value [1] was 1.99 ± 0.23 kcal/mol, the “folding stability dG unfold” value [2] was 2.18 ± 0.17 kcal/mol and the “folding stability dG unfold” value [3] was 1.82 ± 0.1 kcal/mol.
With “SAGGSAGGAVVKLPGNTVMTIDPSTGIAYVTDPSGKVTKYTLTKFPDKTLWEEEPVEEIPSDLLSAGGSAGG [r6_324_JUSTAS]” the “folding stability dG unfold” value [1] was 1.55 ± 0.23 kcal/mol, the “folding stability dG unfold” value [2] was 1.44 ± 0.16 kcal/mol and the “folding stability dG unfold” value [3] was 1.53 ± 0.09 kcal/mol.
In the case of “GSLVTVFPFPENGKTVEVVVPESVGTPLSEAEIRALLLEAHPDVPAAALPAEEAAEILQATPGVEAARVVAS [r1_463_JUSTAS]”, the “folding stability dG unfold” value [1] is reported as -0.302 ± 0.35 kcal/mol, the “folding stability dG unfold” value [2] is reported as -0.0131 ± 0.19 kcal/mol and the “folding stability dG unfold” value [3] is reported as -0.877 ± 0.7 kcal/mol.
With “SAMMKAEIVEIKFDPKTKKLTIKFPDGSKLEIKPGETIKIKIKVTVFNEETGKLEEKEITLTLKLPEGLSAG [r14_366_TrROS_Hall]” the “folding stability dG unfold” value [1] was 2.91 ± 0.43 kcal/mol, the “folding stability dG unfold” value [2] was 2.96 ± 0.1 kcal/mol and the “folding stability dG unfold” value [3] was 2.31 ± 0.27 kcal/mol.
In the case of “SAGGSAGGSAGGAAPNTFKVRLELKVKVEKRTYKNEDGSTYEVDSISVELKIEIEPLPDSAGGSAGGSAGGS [r10_1212_TrROS_Hall]”, the “folding stability dG unfold” value [1] is reported as 5.66 ± 0.51 kcal/mol, the “folding stability dG unfold” value [2] is reported as 5.69 ± 0.2 kcal/mol and the “folding stability dG unfold” value [3] is reported as 3.85 ± 0.19 kcal/mol.
For “SAGPPKKREFEIMIQIPLPPGQSAEELKDLLEIPIRLPDGKTIEIRPRAIEVDPGPGQVTVHYKIEVTDSAG [r5_939_TrROS]”, the “folding stability dG unfold” value [1] was 0.463 ± 0.099 kcal/mol, the “folding stability dG unfold” value [2] was 0.498 ± 0.11 kcal/mol and the “folding stability dG unfold” value [3] was 0.179 ± 0.079 kcal/mol.
For “SAGGSAGGSDYKIEIEVEPMDPEDGYYQVELEIYDPNNGEPKEKIPVHMDSPEDAKDAIKELISAGGSAGGS [r12_26_TrROS]”, the “folding stability dG unfold” value [1] was 0.456 ± 0.084 kcal/mol, the “folding stability dG unfold” value [2] was 0.362 ± 0.024 kcal/mol and the “folding stability dG unfold” value [3] was 0.499 ± 0.09 kcal/mol.
For “SAGGDSVYIPGSISEAIDALRENPNKTVHIMSPDGYYIKITVKWDGDGDYKIDIKWQPPPPPPDPEDKSAGG [r13_56_TrROS]”, the “folding stability dG unfold” value [1] was 2.23 ± 0.39 kcal/mol, the “folding stability dG unfold” value [2] was 2.3 ± 0.21 kcal/mol and the “folding stability dG unfold” value [3] was 2.23 ± 0.33 kcal/mol.
In the case of “SAGSSLTTTSTTTFPGTVRVTTKTPDGKTFTLTVSVSTVPTPDGRVVPSVTTTMDPAARSSNVSPEVDRSAG [r5_462_JUSTAS]”, the “folding stability dG unfold” value [1] is reported as -0.144 ± 0.086 kcal/mol, the “folding stability dG unfold” value [2] is reported as -0.0322 ± 0.075 kcal/mol and the “folding stability dG unfold” value [3] is reported as -0.463 ± 0.17 kcal/mol.
With “SAGGSAGGSGFPVRLKIWDPDETYTYTVPMDPDNVQKFAEELGEKNFNIETEPNGWATITIPKSAGGSAGGS [r12_292_TrROS]” the “folding stability dG unfold” value [1] was 0.713 ± 0.22 kcal/mol, the “folding stability dG unfold” value [2] was 0.95 ± 0.15 kcal/mol and the “folding stability dG unfold” value [3] was 0.471 ± 0.08 kcal/mol.
With “SEVEVTVTVTLTRRLPDGREREVTVTLTLRLEFDPELSEEELESPELRKRLEELRREALERARRLAEELASA [r9_237_TrROS_Hall]” the “folding stability dG unfold” value [1] was > 6 kcal/mol, the “folding stability dG unfold” value [2] was 6.52 ± 0.22 kcal/mol and the “folding stability dG unfold” value [3] was 4.64 ± 0.18 kcal/mol.
In the case of “SAGGSAGGGMVKVTLRITYYNSTGPYTSDRVFELPPDEVEALIEAIPPPPDATPEVEVEREPLGSAGGSAGG [r6_428_JUSTAS]”, the “folding stability dG unfold” value [1] is reported as 1.22 ± 0.14 kcal/mol, the “folding stability dG unfold” value [2] is reported as 1.53 ± 0.15 kcal/mol and the “folding stability dG unfold” value [3] is reported as 0.8 ± 0.042 kcal/mol.
In the case of “SAGGPVFEVTPEVDPDTDLVTYTVRVPADVDFAAVAKALETEFADGSRAEVKPLPDGTVVVVVRLPASAGGS [r8_255_TrMRF]”, the “folding stability dG unfold” value [1] is reported as 0.942 ± 0.059 kcal/mol, the “folding stability dG unfold” value [2] is reported as 0.307 ± 0.12 kcal/mol and the “folding stability dG unfold” value [3] is reported as 1.25 ± 0.023 kcal/mol.
In the case of “SAGGMRIELVRTYIEEPDENGKLKGSGYREVLVLRPPPPVIRVPPELLEEAEELRKKLDGPVEPEELGSAGG [r19_315_JUSTAS]”, the “folding stability dG unfold” value [1] is reported as 3.84 ± 0.42 kcal/mol, the “folding stability dG unfold” value [2] is reported as 3.6 ± 0.18 kcal/mol and the “folding stability dG unfold” value [3] is reported as 3.63 ± 0.38 kcal/mol.
In the case of “SAGGSAGGLKPGEEWLILFRIDIEIEPMPPNMSPDMAKRFPNMYHIEVKIDILIIPAEDLKELFSAGGSAGG [r6_831_TrROS]”, the “folding stability dG unfold” value [1] is reported as 3.51 ± 0.13 kcal/mol, the “folding stability dG unfold” value [2] is reported as 3.74 ± 0.042 kcal/mol and the “folding stability dG unfold” value [3] is reported as 3.17 ± 0.13 kcal/mol.
For “SAGGDTVTTTETFPEKPILTVTTTSFSPSGTTTTTTTTYEVENGKIVSKLSTTTTTTAVAPAPPGTASAGGS [r16_682_JUSTAS]”, the “folding stability dG unfold” value [1] was 0.941 ± 0.036 kcal/mol, the “folding stability dG unfold” value [2] was 1.05 ± 0.024 kcal/mol and the “folding stability dG unfold” value [3] was 0.71 ± 0.034 kcal/mol.
In the case of “SAGGSAKILEEALEALKKAKPGEEVEIEIEIEVNGKKYRIKVKVTYDEETGKITIEIVEIEELPEESAGGSA [r15_724_TrROS_Hall]”, the “folding stability dG unfold” value [1] is reported as 3.8 ± 0.14 kcal/mol, the “folding stability dG unfold” value [2] is reported as 4.11 ± 0.14 kcal/mol and the “folding stability dG unfold” value [3] is reported as 3.23 ± 0.14 kcal/mol.
With “SASPEDTVTTTETEPTTISLGTASIPPDLEVLSVTVTTTTTTTYKVEPPGVPVKLSSTTTTTTTVTLKRTSA [r9_747_JUSTAS]” the “folding stability dG unfold” value [1] was 2.69 ± 0.38 kcal/mol, the “folding stability dG unfold” value [2] was 2.45 ± 0.1 kcal/mol and the “folding stability dG unfold” value [3] was 2.79 ± 0.3 kcal/mol.
In the case of “SAGGIVPLPNGHWVIMAQFEVDEGQTVDDAPEFAREIAKTFGIKPTQVQVDPEKGYVNVAIKIPPGALSAGG [r13_178_TrROS]”, the “folding stability dG unfold” value [1] is reported as 0.327 ± 0.25 kcal/mol, the “folding stability dG unfold” value [2] is reported as 0.263 ± 0.35 kcal/mol and the “folding stability dG unfold” value [3] is reported as 0.217 ± 0.11 kcal/mol.
For “SAMVYEFPFETEEEAREKAREVLLEKLGASPEEEKVELDIEIEIREDPETGKKLATVTVPKVTVSPKKSSAG [r14_467_JUSTAS]”, the “folding stability dG unfold” value [1] was 0.318 ± 0.086 kcal/mol, the “folding stability dG unfold” value [2] was 0.411 ± 0.099 kcal/mol and the “folding stability dG unfold” value [3] was 0.0292 ± 0.11 kcal/mol.
In the case of “SAGGSAGGSAGGLEKLVELLAPGKPLEVLRIDPTPTYVRIVVRHPDYPVDTVILADPDVISAGGSAGGSAGG [r7_303_TrMRF]”, the “folding stability dG unfold” value [1] is reported as -0.0768 ± 0.051 kcal/mol, the “folding stability dG unfold” value [2] is reported as -0.617 ± 0.11 kcal/mol and the “folding stability dG unfold” value [3] is reported as 0.237 ± 0.046 kcal/mol.
